Data taken from article PMC9135340.
Like-named read-outs stand apart in the source and are kept apart here.

Columns and labels:
PTCH2 (Homo sapiens) [1] = target: PTCH2 (Homo sapiens) (UniProt Q9Y6C5); details: cited from earlier work
PTCH1 (Homo sapiens) [2] = target: PTCH1 (Homo sapiens) (UniProt Q13635); details: cited from earlier work
PTCH2 (Homo sapiens) [3] = target: PTCH2 (Homo sapiens) (UniProt Q9Y6C5); details: cited from earlier work; remark: listed apart in the source
PTCH1 (Homo sapiens) [4] = target: PTCH1 (Homo sapiens) (UniProt Q13635); details: cited from earlier work; remark: listed apart in the source
PTCH2 (Homo sapiens) [5] = target: PTCH2 (Homo sapiens) (UniProt Q9Y6C5); details: cited from earlier work; remark: listed apart in the source
PTCH1 (Homo sapiens) [6] = target: PTCH1 (Homo sapiens) (UniProt Q13635); details: cited from earlier work; remark: listed apart in the source
[7] = target: recombinant PTCH2 (amino acids 79 to 379; putative loop 1 ligand binding region) (UniProt Q9Y6C5); assay: SPR; Biacore T100; rPTCH2-His immobilised on a nickel chip; rTRP120-TR or rTrx injected at 2-fold dilutions (800nM to 25nM); three independent experiments
Sequence of recombinant PTCH2 (amino acids 79 to 379; putative loop 1 ligand binding region) (Q9Y6C5 79-379): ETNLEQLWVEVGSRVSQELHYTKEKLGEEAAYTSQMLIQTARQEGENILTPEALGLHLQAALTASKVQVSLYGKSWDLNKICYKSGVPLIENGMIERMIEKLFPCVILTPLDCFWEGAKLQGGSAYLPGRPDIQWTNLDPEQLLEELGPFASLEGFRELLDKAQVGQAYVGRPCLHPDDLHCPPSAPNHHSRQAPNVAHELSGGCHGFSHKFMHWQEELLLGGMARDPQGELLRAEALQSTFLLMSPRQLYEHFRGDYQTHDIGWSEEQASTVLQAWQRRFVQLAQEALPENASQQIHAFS

Sequence of PTCH1 (Homo sapiens) (Q13635 whole entry, the tested form may be a part): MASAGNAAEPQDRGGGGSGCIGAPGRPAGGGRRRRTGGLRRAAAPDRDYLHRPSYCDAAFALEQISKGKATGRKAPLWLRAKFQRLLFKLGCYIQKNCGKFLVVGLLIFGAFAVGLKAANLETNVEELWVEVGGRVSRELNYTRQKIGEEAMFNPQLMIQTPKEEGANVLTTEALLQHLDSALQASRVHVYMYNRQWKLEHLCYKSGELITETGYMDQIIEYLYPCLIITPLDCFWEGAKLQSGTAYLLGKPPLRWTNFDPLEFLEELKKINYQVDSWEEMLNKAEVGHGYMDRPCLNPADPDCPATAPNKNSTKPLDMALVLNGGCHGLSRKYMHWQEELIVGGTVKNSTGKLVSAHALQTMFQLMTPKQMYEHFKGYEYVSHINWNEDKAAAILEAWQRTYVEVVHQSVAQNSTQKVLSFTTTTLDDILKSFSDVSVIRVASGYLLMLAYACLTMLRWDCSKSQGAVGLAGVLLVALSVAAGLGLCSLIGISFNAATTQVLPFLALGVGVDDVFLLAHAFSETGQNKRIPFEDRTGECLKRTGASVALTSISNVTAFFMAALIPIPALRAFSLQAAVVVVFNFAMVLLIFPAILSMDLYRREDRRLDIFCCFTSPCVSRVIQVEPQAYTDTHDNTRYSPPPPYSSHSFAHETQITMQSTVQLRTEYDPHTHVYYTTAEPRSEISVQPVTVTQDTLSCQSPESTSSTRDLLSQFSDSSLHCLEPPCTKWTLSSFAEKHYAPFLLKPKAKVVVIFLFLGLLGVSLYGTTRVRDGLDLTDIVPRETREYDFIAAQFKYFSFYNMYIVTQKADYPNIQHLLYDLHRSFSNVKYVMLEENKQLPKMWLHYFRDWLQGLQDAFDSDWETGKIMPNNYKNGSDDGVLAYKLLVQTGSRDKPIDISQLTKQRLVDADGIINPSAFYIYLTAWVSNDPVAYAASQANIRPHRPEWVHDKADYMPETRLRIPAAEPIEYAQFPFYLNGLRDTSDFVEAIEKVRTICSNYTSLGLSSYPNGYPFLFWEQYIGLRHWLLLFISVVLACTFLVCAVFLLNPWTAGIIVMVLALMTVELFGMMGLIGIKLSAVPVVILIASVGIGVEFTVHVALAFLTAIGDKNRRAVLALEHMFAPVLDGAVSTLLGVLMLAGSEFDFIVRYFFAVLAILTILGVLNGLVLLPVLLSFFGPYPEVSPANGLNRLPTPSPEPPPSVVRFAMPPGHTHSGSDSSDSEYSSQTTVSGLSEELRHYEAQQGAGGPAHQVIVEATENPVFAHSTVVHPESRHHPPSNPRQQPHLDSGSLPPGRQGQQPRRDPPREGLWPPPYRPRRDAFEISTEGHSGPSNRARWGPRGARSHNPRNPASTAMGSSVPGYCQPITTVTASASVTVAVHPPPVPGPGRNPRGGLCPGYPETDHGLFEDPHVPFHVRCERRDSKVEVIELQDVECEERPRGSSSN
Sequence of PTCH2 (Homo sapiens) (Q9Y6C5 whole entry): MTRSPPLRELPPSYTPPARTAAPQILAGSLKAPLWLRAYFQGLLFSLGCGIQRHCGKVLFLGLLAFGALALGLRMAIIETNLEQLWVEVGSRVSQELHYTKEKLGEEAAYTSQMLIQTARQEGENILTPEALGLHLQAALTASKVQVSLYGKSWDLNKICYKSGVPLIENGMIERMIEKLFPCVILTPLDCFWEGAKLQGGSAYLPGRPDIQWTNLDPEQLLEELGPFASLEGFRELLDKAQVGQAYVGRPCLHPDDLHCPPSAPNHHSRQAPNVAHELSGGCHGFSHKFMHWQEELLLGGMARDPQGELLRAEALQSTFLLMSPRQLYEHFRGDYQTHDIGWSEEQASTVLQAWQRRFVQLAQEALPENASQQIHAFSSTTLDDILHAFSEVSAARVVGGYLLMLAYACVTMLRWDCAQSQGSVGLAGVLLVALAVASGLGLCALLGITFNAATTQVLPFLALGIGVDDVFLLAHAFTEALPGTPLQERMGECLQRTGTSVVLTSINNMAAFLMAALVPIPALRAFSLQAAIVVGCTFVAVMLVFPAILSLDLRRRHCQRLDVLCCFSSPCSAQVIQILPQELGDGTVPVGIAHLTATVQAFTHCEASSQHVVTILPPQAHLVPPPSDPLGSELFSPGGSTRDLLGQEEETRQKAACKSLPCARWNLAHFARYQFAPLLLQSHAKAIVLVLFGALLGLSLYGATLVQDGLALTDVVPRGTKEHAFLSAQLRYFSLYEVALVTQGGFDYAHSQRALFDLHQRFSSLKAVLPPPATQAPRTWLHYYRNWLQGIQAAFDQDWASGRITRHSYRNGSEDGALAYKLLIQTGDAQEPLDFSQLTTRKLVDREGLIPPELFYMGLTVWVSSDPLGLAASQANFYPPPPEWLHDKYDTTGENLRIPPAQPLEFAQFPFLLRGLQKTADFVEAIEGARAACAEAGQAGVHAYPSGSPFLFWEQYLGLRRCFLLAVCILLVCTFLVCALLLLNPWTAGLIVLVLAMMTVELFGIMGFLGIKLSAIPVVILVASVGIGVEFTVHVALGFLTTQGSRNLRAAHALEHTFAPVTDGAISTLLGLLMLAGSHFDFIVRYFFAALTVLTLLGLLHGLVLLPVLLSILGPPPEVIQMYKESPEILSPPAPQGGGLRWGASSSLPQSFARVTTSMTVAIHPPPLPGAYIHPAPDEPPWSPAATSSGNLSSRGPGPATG
Sequence of Ihh (Q14623 28-202): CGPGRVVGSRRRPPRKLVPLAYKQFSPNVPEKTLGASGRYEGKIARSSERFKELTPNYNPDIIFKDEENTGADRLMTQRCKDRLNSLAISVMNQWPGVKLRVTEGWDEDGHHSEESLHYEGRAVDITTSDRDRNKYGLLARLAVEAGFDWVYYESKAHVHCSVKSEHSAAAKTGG

## Shh (from UniProt Q15465)
PTCH2 (Homo sapiens) [1]
  Kd: 1.8 nM
PTCH1 (Homo sapiens) [2]
  Kd: 1 nM

## Ihh (from UniProt Q14623)
PTCH2 (Homo sapiens) [3]
  Kd: 0.4 nM
PTCH1 (Homo sapiens) [4]
  Kd: 1 nM

## Dhh (from UniProt O43323)
PTCH2 (Homo sapiens) [5]
  Kd: 0.6 nM
PTCH1 (Homo sapiens) [6]
  Kd: 2.6 nM

## recombinant TRP120 tandem repeat domain (rTRP120-TR) (domain or fragment)
[7]
  Kd: 4.4 nM
